Data on 36 substances can be found in publication PMC6704107.

The target of experiment [1] is Adeno-associated virus 5 (AAV5) particle, wild-type capsid (adeno-associated virus 5 (AAV5)) (UniProt Q9YIJ1). In words: SPR; Biacore T200; AAV1 or AAV5 particles immobilised on a CM5 chip by amide coupling; wt or mutated AAVR flowed over; 30 μl/min, 25 °C, PBS.
Experiment [2] has as its target Adeno-associated virus 1 (AAV1) particle, wild-type capsid (adeno-associated virus 1 (AAV1)) (UniProt Q9WBP8). The experiment is described as above.
Experiment [3] has as its target recombinant AAV1 particles (AAV1 capsid) (adeno-associated virus 1) (UniProt Q9WBP8). The experiment can be described thus: SPR; Biacore T200; AAV1 or AAV5 particles immobilised on a CM5 chip by amide coupling (sodium acetate pH 4.5); wt or mutated AAVR flowed over at 30 ul/min, 25 C, PBS; triplicate experiments, mean with standard error. For orientation: SPR reads the build-up and loss of mass on a sensor chip optically.

For experiment [4], the target named is recombinant AAV5 particles (AAV5 capsid) (adeno-associated virus 5) (UniProt Q9YIJ1). The experiment is described as above.
For experiment [5], the target named is Adeno-associated virus receptor (AAVR), wild-type, PKD1-5 domains (UniProt Q8IZA0).
Experiment [6] addresses AAV2 capsid (Adeno-associated virus 2) (UniProt P03135). The following applies: cited from earlier work.
In experiment [7] the target is Adeno-associated virus 1 (AAV1) particle, wild-type capsid (adeno-associated virus 1 (AAV1)) (UniProt Q9WBP8).

AAVR, sequence (Q8IZA0 whole entry): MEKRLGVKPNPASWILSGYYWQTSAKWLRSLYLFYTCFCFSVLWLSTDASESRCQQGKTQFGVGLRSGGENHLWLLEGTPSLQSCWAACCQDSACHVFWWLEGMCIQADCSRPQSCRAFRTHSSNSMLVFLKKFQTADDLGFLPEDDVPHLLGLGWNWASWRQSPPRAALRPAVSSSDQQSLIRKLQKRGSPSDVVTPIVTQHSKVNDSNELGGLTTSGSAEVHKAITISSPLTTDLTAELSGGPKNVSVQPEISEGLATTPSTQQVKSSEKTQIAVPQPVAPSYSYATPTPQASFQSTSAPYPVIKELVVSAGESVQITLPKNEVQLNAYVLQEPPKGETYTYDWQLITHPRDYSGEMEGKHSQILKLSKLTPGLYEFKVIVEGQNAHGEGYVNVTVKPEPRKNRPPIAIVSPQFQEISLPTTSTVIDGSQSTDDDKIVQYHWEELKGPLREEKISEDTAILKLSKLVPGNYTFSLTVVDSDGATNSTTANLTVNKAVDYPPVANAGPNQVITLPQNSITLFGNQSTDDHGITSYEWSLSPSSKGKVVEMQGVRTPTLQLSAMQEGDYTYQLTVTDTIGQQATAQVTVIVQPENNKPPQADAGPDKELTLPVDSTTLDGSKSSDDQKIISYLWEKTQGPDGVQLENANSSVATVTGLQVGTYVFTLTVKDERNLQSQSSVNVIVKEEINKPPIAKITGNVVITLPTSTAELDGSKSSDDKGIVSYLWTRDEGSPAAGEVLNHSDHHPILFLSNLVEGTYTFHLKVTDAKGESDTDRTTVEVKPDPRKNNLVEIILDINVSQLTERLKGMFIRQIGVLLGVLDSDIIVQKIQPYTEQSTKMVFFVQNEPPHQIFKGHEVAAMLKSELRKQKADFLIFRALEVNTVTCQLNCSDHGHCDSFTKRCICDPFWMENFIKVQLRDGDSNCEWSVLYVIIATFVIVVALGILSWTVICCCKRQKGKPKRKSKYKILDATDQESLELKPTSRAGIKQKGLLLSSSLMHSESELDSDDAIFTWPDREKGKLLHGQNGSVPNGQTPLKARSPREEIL

As usually defined, the Kd is a measure of binding affinity in units of concentration. Consider “Adeno-associated virus receptor (AAVR), wild-type, PKD1-5 domains (from UniProt Q8IZA0-1 1-1049)”, for which the Kd in experiment [1] amounted to 287 nM; in experiment [2], 13.9 nM. As to “AAVR PKD1-5 K399A (from UniProt Q8IZA0-1 1-1049) (domain or fragment)”, the Kd in experiment [3] was found to be 17.5 nM. With “AAVR PKD1-5 Y442A (from UniProt Q8IZA0-1 1-1049) (domain or fragment)”, the Kd in experiment [4] is 269 nM. For “AAVR PKD1-5 S431A (from UniProt Q8IZA0-1 1-1049) (domain or fragment)”, the Kd in experiment [4] was 244 nM. On to “AAVR PKD1-5 K464A (from UniProt Q8IZA0-1 1-1049) (domain or fragment)”, for which the Kd in experiment [4] came to 265 nM. In turn, “AAVR PKD1-5 S356A (from UniProt Q8IZA0-1 1-1049) (receptor)” registered a fold decrease of binding affinity against wt AAVR in experiment [1] of 100 fold. In the case of “AAV5 particle with capsid mutation E708A (from UniProt Q9YIJ1 1-724) (complex)”, the transduction of HEK293T cells (endogenous AAVR) by the mutated AAV5-GFP, functional titer against wt AAV5 in experiment [5] is 50 % of wt AAV5. For “AAVR PKD1-5 T350A (from UniProt Q8IZA0-1 1-1049) (domain or fragment)”, the Kd in experiment [3] was 14.2 nM.

For the substance “AAVR PKD1-5 V427A (from UniProt Q8IZA0-1 1-1049) (domain or fragment)”, in experiment [4], the dissociation constant (Kd) worked out at 306 nM. With “wild-type AAVR PKD1-5 domains with a C-terminal His-tag (from UniProt Q8IZA0-1 1-1049) (domain or fragment)”, the Kd in experiment [3] amounted to 16.2 nM.

In the case of “AAVR PKD1-5 S433A (from UniProt Q8IZA0-1 1-1049) (domain or fragment)”, in experiment [4], the Kd is 284 nM.

Turning to “AAVR PKD1-5 D354A (from UniProt Q8IZA0-1 1-1049) (receptor)”, in experiment [1], the fold decrease of binding affinity against wt AAVR turned out to be 100 fold. For “AAVR PKD1-5 T397A (from UniProt Q8IZA0-1 1-1049) (domain or fragment)”, the Kd in experiment [3] is 17.7 nM.

Take “AAVR PKD1-5 I349A (from UniProt Q8IZA0-1 1-1049) (receptor)”: the dissociation constant Kd in experiment [1] was 7 nM. Turning to “AAVR PKD1-5 D429A (from UniProt Q8IZA0-1 1-1049) (domain or fragment)”, in experiment [4], the dissociation constant Kd turned out to be 243 nM. “AAVR PKD1-5 T397A (from UniProt Q8IZA0-1 1-1049) (receptor)” had a fold decrease of binding affinity against wt AAVR in experiment [1] of 100 fold. “AAVR PKD1-5 S356A (from UniProt Q8IZA0-1 1-1049) (domain or fragment)”: in experiment [3], the Kd is 12.2 nM. Turning to AAVR (from UniProt Q8IZA0), in experiment [6], the Kd was 57 nM. Regarding “AAVR PKD1-5 D435A (from UniProt Q8IZA0-1 1-1049) (domain or fragment)”, the Kd in experiment [4] was found to be 234 nM.

Consider “AAVR PKD1-5 D354A (from UniProt Q8IZA0-1 1-1049) (domain or fragment)”, for which the Kd in experiment [3] worked out at 17.4 nM. With “AAVR PKD1-5 E378A (from UniProt Q8IZA0-1 1-1049) (domain or fragment)”, in experiment [3], the Kd is 19.9 nM. On to “AAVR PKD1-5 D437A (from UniProt Q8IZA0-1 1-1049) (domain or fragment)”, for which, in experiment [4], the Kd was 252 nM. For the substance “AAVR PKD1-5 L376A (from UniProt Q8IZA0-1 1-1049) (domain or fragment)”, in experiment [3], the dissociation constant (Kd) came to 16.7 nM.

Consider “AAV5 particle with capsid mutation Y542A (from UniProt Q9YIJ1 1-724) (complex)”, for which the transduction of HEK293T cells (endogenous AAVR) by the mutated AAV5-GFP, functional titer against wt AAV5 in experiment [5] is 15 % of wt AAV5. For “AAVR PKD1-5 S425A (from UniProt Q8IZA0-1 1-1049) (domain or fragment)”, in experiment [4], the dissociation constant Kd stood at 329 nM. With “AAVR PKD1-5 D435A (from UniProt Q8IZA0-1 1-1049) (receptor)”, the AAV1-mCherry transduction of AAVR-silenced HEK293T cells expressing AAVR with this mutation (pcDNA3.1(+)-AAVR) (% of AAV1 infection) in experiment [7] was found to be 70. “AAVR PKD1-5 K464A (from UniProt Q8IZA0-1 1-1049) (receptor)” returned a Kd in experiment [2] of 1.32 nM. Regarding “AAVR PKD1-5 T434A (from UniProt Q8IZA0-1 1-1049) (domain or fragment)”, in experiment [4], the Kd is 289 nM. On to “AAVR PKD1-5 K399A (from UniProt Q8IZA0-1 1-1049) (receptor)”, for which the equilibrium dissociation constant (Kd) in experiment [1] worked out at 71900 nM. As to “AAVR PKD1-5 D436A (from UniProt Q8IZA0-1 1-1049) (domain or fragment)”, the dissociation constant Kd in experiment [4] was found to be 295 nM. On the same count and under the same terms, next, “AAVR PKD1-5 T426A (from UniProt Q8IZA0-1 1-1049) (domain or fragment)”: 311 nM. Take “AAV5 particle with capsid mutation Q532A (from UniProt Q9YIJ1 1-724) (complex)”: in experiment [5], the transduction of HEK293T cells (endogenous AAVR) by the mutated AAV5-GFP, functional titer against wt AAV5 was 50 % of wt AAV5. Turning to “AAVR PKD1-5 I349A (from UniProt Q8IZA0-1 1-1049) (domain or fragment)”, the Kd in experiment [3] is 18.5 nM. Regarding “AAVR PKD1-5 K438A (from UniProt Q8IZA0-1 1-1049) (domain or fragment)”, the dissociation constant Kd in experiment [4] came out at 270 nM. In experiment [7], “AAVR PKD1-5 T434A (from UniProt Q8IZA0-1 1-1049) (receptor)” had an AAV1-mCherry transduction of AAVR-silenced HEK293T cells expressing AAVR with this mutation (pcDNA3.1(+)-AAVR) (% of AAV1 infection) of 70.

Turning to “AAVR PKD1-5 R353A (from UniProt Q8IZA0-1 1-1049) (domain or fragment)”, the Kd in experiment [3] was determined as 20.5 nM.
